In patent US20210040185A1 one finds IC50 of viral neutralization (Env.IMC.LucR virus, TZM-BL reporter cells) data, which are given here for one substance.

Holding throughout (test): cell-based or functional assay
Experiment [1] has as its target HIV-1 envelope (Env) of virus AC10.0.29 (HIV-1).
The target of experiment [2] is HIV-1 envelope (Env) of virus CNE20 (HIV-1).
The target in experiment [3] is HIV-1 envelope (Env) of virus WITO4160.33 (HIV-1).
For experiment [4], the target named is HIV-1 envelope (Env) of virus REJO4541.67 (HIV-1).
The target in experiment [5] is HIV-1 envelope (Env) of virus CAP45.2.00.G3 (HIV-1).
Experiment [6] addresses HIV-1 envelope (Env) of virus DU172.17 (HIV-1).

Take 3BNC117 (antibody): the IC50 of viral neutralization (Env.IMC.LucR virus, TZM-BL reporter cells) in experiment [1] is 11 µg/mL; in experiment [2], > 50 µg/mL; in experiment [3], 0.053 µg/mL; in experiment [4], 0.07 µg/mL; in experiment [5], 2.7 µg/mL; in experiment [6], 1.25 µg/mL.
